# IntAct's records for PubMed 20729554
# B1: Matrilin-1 (Homo sapiens), P21941 (parent)
# chain: MRVLSGTSLMLCSLLLLLQALCSPGLAPQSRGHLCRTRPTDLVFVVDSSRSVRPVEFEKVKVFLSQVIESLDVGPNATRVGMVNYASTVKQEFSLRAHVSKAALLQAVRRIQPLSTGTMTGLAIQFAITKAFGDAEGGRSRSPDISKVVIVVTDGRPQDSVQDVSARARASGVELFAIGVGSVDKATLRQIASEPQDEHVDYVESYSVIEKLSRKFQEAFCVVSDLCATGDHDCEQVCISSPGSYTCACHEGFTLNSDGKTCNVCSGGGGSSATDLVFLIDGSKSVRPENFELVKKFISQIVDTLDVSDKLAQVGLVQYSSSVRQEFPLGRFHTKKDIKAAVRNMSYMEKGTMTGAALKYLIDNSFTVSSGARPGAQKVGIVFTDGRSQDYINDAAKKAKDLGFKMFAVGVGNAVEDELREIASEPVAEHYFYTADFKTINQIGKKLQKKICVEEDPCACESLVKFQAKVEGLLQALTRKLEAVSKRLAILENTVV
# Variants of: B1
# Settings: with co2a1_bovin COL2A1, P02459
# Sequence of co2a1_bovin COL2A1, P02459 (P02459 whole entry): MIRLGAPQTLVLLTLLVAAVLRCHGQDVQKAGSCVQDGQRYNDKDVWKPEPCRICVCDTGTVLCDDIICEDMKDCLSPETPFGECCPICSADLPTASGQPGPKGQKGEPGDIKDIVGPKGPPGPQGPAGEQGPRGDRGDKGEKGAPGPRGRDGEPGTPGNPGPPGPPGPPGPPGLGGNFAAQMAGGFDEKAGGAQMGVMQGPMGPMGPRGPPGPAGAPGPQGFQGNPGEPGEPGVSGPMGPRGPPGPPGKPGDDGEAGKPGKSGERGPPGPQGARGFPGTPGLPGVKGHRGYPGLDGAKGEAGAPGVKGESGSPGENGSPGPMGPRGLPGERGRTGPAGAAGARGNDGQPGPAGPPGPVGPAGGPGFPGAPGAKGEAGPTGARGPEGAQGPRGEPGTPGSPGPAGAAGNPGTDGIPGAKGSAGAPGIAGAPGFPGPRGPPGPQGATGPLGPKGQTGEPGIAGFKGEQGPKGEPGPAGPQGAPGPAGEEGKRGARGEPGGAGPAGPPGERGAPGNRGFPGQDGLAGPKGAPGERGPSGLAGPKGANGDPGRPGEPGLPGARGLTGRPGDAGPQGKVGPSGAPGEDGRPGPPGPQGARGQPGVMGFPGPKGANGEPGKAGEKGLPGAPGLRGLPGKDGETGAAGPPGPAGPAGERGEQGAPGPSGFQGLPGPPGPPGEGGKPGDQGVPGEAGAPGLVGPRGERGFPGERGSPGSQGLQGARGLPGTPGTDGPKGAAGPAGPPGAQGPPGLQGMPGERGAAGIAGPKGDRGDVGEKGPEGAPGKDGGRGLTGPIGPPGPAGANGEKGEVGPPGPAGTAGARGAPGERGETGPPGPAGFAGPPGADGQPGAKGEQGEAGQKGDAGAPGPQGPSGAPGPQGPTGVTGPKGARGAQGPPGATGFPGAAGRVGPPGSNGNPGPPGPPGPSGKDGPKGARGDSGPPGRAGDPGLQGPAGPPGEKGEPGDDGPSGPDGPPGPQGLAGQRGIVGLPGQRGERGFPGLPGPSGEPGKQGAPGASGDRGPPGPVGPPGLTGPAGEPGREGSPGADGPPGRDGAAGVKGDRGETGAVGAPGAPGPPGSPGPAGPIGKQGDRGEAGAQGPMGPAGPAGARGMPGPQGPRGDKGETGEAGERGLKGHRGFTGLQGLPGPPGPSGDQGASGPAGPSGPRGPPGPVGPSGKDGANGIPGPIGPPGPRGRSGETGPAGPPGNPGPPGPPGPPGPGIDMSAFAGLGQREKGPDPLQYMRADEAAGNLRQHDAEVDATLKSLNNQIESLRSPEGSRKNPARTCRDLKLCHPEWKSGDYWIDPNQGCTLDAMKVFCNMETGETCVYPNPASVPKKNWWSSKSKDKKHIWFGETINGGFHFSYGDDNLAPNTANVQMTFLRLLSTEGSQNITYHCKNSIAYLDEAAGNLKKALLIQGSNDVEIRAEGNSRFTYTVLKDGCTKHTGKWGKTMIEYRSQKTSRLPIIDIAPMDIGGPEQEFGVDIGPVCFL
row,Variant,effect of a mutation on the interaction
1,N344A,with no effect

# Variants of: B1
# Settings: with co2a1_bovin COL2A1, P02459
# Remark: another data set of the same source
row,Variant,effect of a mutation on the interaction
1,N76A,increasing interaction strength
